One may read the Kd as the concentration at which binding is half-saturated.

Test [1] has as its target T1, murine IL-7Rα (murine, UniProt P16872 21-459).
T1 construct: whole, on cells; Expressed alone on transfected 293 cells; also called murine IL-7Rα alone
T1 sequence (looked up): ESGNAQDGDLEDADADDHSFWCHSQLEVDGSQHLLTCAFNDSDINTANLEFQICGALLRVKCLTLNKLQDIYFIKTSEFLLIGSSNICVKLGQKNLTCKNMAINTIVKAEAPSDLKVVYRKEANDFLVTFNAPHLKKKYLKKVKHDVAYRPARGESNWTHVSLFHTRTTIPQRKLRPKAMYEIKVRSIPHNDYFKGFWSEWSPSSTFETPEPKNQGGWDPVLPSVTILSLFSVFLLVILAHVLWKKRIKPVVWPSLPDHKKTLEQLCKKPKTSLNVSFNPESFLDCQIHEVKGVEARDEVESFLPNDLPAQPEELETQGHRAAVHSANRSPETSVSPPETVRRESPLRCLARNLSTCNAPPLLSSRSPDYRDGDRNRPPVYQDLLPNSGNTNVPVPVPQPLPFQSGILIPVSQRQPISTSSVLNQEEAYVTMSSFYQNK
The test can be described thus: affinity labeling of transfected 293 cells with 125I-TSLP, DSS cross-linking, SDS-PAGE. The protocol:
The binding of TSLP to TSLPR polypeptide in the presence of IL-7Rα was examined in affinity labeling assays. Affinity labeling assays were performed by adding 1-5 nM of ¹²⁵I-labeled TSLP to 5×10⁶ 293 cells transfected with expression constructs for murine IL-7Rα, murine TSLPR polypeptide, murine IL-7Rα and murine TSLPR polypeptide, or human IL-7Rα and murine TSLPR polypeptide. Iodinated TSLP was prepared by adding IODO-GEN (Pierce, Rockford, Ill.) and 2 mCi ¹²⁵I to 1 μg of TSLP. A specific activity of approximately 200-300 μCi/μg was obtained by this method. Prior to affinity labeling, 293 cells were transiently transfected using the calcium phosphate method (Eppendorf-5 Prime, Boulder, Colo.). Following a 2 hour incubation with ¹²⁵I-TSLP, cells were cross-linked with 0.1 mg/ml disuccinimidyl suberate (Pierce), lysed in lysis buffer, and the lysates resolved by SDS-PAGE.

Test [2] deals with T2, TSLP receptors constitutively expressed on NAG8/7 cells.
T2 construct: also called single class of receptors
T2 sequence (Q8CII9 20-359): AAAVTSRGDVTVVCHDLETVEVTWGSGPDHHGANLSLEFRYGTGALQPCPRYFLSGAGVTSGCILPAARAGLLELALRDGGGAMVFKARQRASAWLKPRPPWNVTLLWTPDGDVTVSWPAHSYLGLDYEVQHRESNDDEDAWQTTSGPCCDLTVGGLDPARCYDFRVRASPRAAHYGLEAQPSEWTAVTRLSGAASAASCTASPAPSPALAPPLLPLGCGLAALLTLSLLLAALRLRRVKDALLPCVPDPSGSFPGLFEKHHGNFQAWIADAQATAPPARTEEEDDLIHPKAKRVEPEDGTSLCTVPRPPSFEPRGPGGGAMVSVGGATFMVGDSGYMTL
The test can be described thus: displacement binding of 125I-TSLP by unlabeled TSLP on NAG8/7 cells, Scatchard transformation. The protocol:
The binding of TSLP to 293 cells transfected with murine IL-7Rα and murine TSLPR polypeptide, or murine IL-7Rα alone, was analyzed in a displacement binding assay. Following two washes, 1×10⁶transfected 293 cells were incubated in a constant amount of ¹²⁵I-labeled TSLP (approximately 20,000 cpm) and varying amounts of unlabeled TSLP. Following a 3 hour incubation, treated cells were separated from the medium by centrifugation in olive oil and N-butylphthalate. Cell-bound radioactivity was measured using a gamma counter.
Analysis of binding data by Scatchard transformation was performed using the LIGAND computer program (Munson and Rodbard, 1980, Anal. Biochem. 107:220-39). […] Due to the very low binding activity of TSLP for cells expressing TSLPR polypeptide alone, it was not possible to determine the Kd for these cells. Displacement binding assays were also performed using NAG8/7 cells, which constitutively express TSLP receptors and proliferate in response to TSLP (Friend et al., supra; Levin et al., supra). In these displacement binding assays, 5×10⁶ NAG8/7 cells were incubated in a constant amount of ¹²⁵I-labeled TSLP (approximately 180,000 cpm) and varying amounts of unlabeled TSLP. The remainder of the assay was performed as described herein.

B1: Thymic stromal lymphopoietin (TSLP) (ligand, UniProt Q9JIE6 20-140, looked up)
chain: YNFSNCNFTSITKIYCNIIFHDLTGDLKGAKFEQIEDCESKPACLLKIEYYTLNPIPGCPSLPDKTFARRTREALNDHCPGYPETERNDGTQEMAQEVQNICLNQTSQILRLWYSFMQSPE
As for B1, the binding result in test [1] is “no binding (tested: 1-5 nM of 125I-labeled TSLP)”. For the same molecule, the dissociation constant Kd in test [2] is ~2.2 nM.

For the origin of these results see patent US20020160949A1 (WHITEHEAD INSTITUTE FOR BIOMEDICAL RESEARCH, published 2002).
